Measured values reported in US20260242478A1 (published 2026).
Where no end group is shown, it is not given here.

Tests used:
[1] = target: T1, Anti-PSMA Fab (SEQ ID NOs: 19, 20); test: phage ELISA; biotinylated PSMA Fab on neutravidin plate, clonal phage supernatant, anti-M13 HRP detection;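 further: wells preincubated with PSMA antigen in blocking buffer or with blocking buffer only before clonal phage were added for a short incubation, then bound phage detected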
T1 construct: Biotinylated PSMA Fab captured on neutravidin coated plates in the phage ELISA; also called 006 PSMA Fab
Protocol: (§1) Clonal phage were harvested as crude supernatants and screened via standard ELISAs. […] Prior to the addition of clonal phage. wells were incubated with blocking buffer and PSMA antigen or blocking buffer alone. Without washing or aspirating, clonal phage supernatants were then added to the wells and incubated for a short time. Wells were then washed followed by detection of bound phage using a horse radish conjugated anti-M13 antibody.

[2] = target: T1, Anti-PSMA Fab (SEQ ID NOs: 19, 20); test: phage ELISA; PSMA Fab on plate pre-incubated with PSMA antigen as competitor, anti-M13 HRP detection;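 further: crude clonal phage supernatants added to Fab-coated wells still holding PSMA antigen in blocking buffer, with bound phage as read-out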
Protocol: as §1

[3] = target: T2, Anti-PSMA Fab (SEQ ID NOs: 19, 20); test: phage ELISA; biotinylated PSMA Fab captured on neutravidin plate, clonal phage supernatant, anti-M13 HRP detection
T2 construct: Biotinylated and captured on neutravidin coated plates in the phage ELISA; also called 006 PSMA Fab
Protocol: as §1

[4] = target: T2, Anti-PSMA Fab (SEQ ID NOs: 19, 20); test: phage ELISA; captured PSMA Fab pre-incubated with PSMA antigen as competitor, anti-M13 HRP detection
Protocol: as §1

[5] = target: T3, Anti-PSMA Fab (SEQ ID NOs: 19, 20); test: phage binding ELISA; Fab-coated wells pre-incubated with PSMA antigen as competitor, anti-M13-HRP detection;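 further: clonal phage supernatants screened, with reference wells given blocking buffer only (no PSMA antigen) before phage were added for a brief incubation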
T3 construct: Biotinylated and captured on neutravidin coated plates in the phage ELISA; also called 006 PSMA Fab
Protocol: as §1

[6] = target: T3, Anti-PSMA Fab (SEQ ID NOs: 19, 20); test: phage binding ELISA; biotinylated PSMA Fab on neutravidin plate, clonal phage detected with anti-M13-HRP
Protocol: as §1

[7] = target: T4, Anti-PSMA Fab (SEQ ID NOs: 19, 20); test: phage binding ELISA; biotinylated PSMA Fab on neutravidin plate, clonal phage supernatant, anti-M13 HRP detection;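 further: wells were preincubated with blocking buffer either containing PSMA antigen or without it before crude phage supernatant was added, briefly incubated, then washed prior to detection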
T4 construct: also called 006 PSMA Fab
Protocol: as §1

[8] = target: T4, Anti-PSMA Fab (SEQ ID NOs: 19, 20); test: phage binding ELISA; PSMA Fab on plate pre-incubated with PSMA antigen as competitor, anti-M13 HRP detection;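 further: crude clonal phage supernatants added without washing to wells preincubated with PSMA in blocking buffer, compared with wells receiving blocking buffer only, then bound phage detected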
Protocol: as §1

B1: Phage-2161 (peptide)
peptide: EMKWCIPDWMCAAG
notes: Clonal phage of the Peptide-180 library, tested as crude supernatant; not shown: fused to the pIII filament of the bacteriophage
[1]
  Phage binding ELISA, Anti-PSMA Fab (SEQ ID NOs: 19, 20) signal: 1.66
[2]
  Phage binding ELISA, Anti-PSMA Fab signal in the presence of PSMA: 0.0716

B2: Phage-2162 (peptide)
peptide: EVKLCRPPWMCEIF
notes: Clonal phage of the peptide-180 library, tested as crude supernatant; not shown: pIII of the bacteriophage, to which the peptide is fused
[3]
  Phage binding ELISA, Anti-PSMA Fab (SEQ ID NOs: 19, 20) signal: 1.66
[4]
  Phage binding ELISA, Anti-PSMA Fab signal in the presence of PSMA: 0.0633

B3: Phage-2163 (peptide)
peptide: GSHWCIPPWMCQMS
notes: as for B2
[3]
  Phage binding ELISA, Anti-PSMA Fab (SEQ ID NOs: 19, 20) signal: 1.66
[4]
  Phage binding ELISA, Anti-PSMA Fab signal in the presence of PSMA: 0.0821

B4: Phage-2164 (peptide)
peptide: DIRWCIPDWMCTET
notes: as for B2
[3]
  Phage binding ELISA, Anti-PSMA Fab (SEQ ID NOs: 19, 20) signal: 1.65
[4]
  Phage binding ELISA, Anti-PSMA Fab signal in the presence of PSMA: 0.0725

B5: Phage-2165 (peptide)
peptide: VVPWCIPVWMCNSQ
notes: as for B2
[3]
  Phage binding ELISA, Anti-PSMA Fab (SEQ ID NOs: 19, 20) signal: 1.65
[4]
  Phage binding ELISA, Anti-PSMA Fab signal in the presence of PSMA: 0.0957

B6: Phage-2166 (peptide)
peptide: YEKWCTPAWMCEYQ
notes: as for B2
[3]
  Phage binding ELISA, Anti-PSMA Fab (SEQ ID NOs: 19, 20) signal: 1.65
[4]
  Phage binding ELISA, Anti-PSMA Fab signal in the presence of PSMA: 0.0648

B7: Phage-2167 (peptide)
peptide: VQKWCVPEWMCGSW
notes: as for B2
[3]
  Phage binding ELISA, Anti-PSMA Fab (SEQ ID NOs: 19, 20) signal: 1.65
[4]
  Phage binding ELISA, Anti-PSMA Fab signal in the presence of PSMA: 0.0837

B8: Phage-2168 (peptide)
peptide: GEKWCIPEWMCVHL
notes: as for B2
[3]
  Phage binding ELISA, Anti-PSMA Fab (SEQ ID NOs: 19, 20) signal: 1.65
[4]
  Phage binding ELISA, Anti-PSMA Fab signal in the presence of PSMA: 0.065

B9: Phage-2169 (peptide)
peptide: ESMLCRPVWMCVGF
notes: as for B2
[3]
  Phage binding ELISA, Anti-PSMA Fab (SEQ ID NOs: 19, 20) signal: 1.65
[4]
  Phage binding ELISA, Anti-PSMA Fab signal in the presence of PSMA: 0.0711

B10: Phage-2170 (peptide)
peptide: DENWCKPLWMCKGF
notes: as for B2
[3]
  Phage binding ELISA, Anti-PSMA Fab (SEQ ID NOs: 19, 20) signal: 1.65
[4]
  Phage binding ELISA, Anti-PSMA Fab signal in the presence of PSMA: 0.105

B11: Phage-2171 (peptide)
peptide: GDRLCVPEWMCEML
notes: as for B2
[3]
  Phage binding ELISA, Anti-PSMA Fab (SEQ ID NOs: 19, 20) signal: 1.65
[4]
  Phage binding ELISA, Anti-PSMA Fab signal in the presence of PSMA: 0.0685

B12: Phage-2172 (peptide)
peptide: MAMMCIPPWMCDTM
notes: as for B2
[3]
  Phage binding ELISA, Anti-PSMA Fab (SEQ ID NOs: 19, 20) signal: 1.65
[4]
  Phage binding ELISA, Anti-PSMA Fab signal in the presence of PSMA: 0.0889

B13: Phage-2173 (peptide)
peptide: ENKWCIPTWMCAHE
modifications: cysteine pairing not given here; also: displayed on phage, fused to pIII
notes: as for B2
[3]
  Phage binding ELISA, Anti-PSMA Fab (SEQ ID NOs: 19, 20) signal: 1.64
[4]
  Phage binding ELISA, Anti-PSMA Fab signal in the presence of PSMA: 0.0646

B14: Phage-2174 (peptide)
peptide: YVNWCTPEWMCVGF
notes: as for B2
[3]
  Phage binding ELISA, Anti-PSMA Fab (SEQ ID NOs: 19, 20) signal: 1.64
[4]
  Phage binding ELISA, Anti-PSMA Fab signal in the presence of PSMA: 0.0598

B15: Phage-2175 (peptide)
peptide: VIPWCIPEWMCTAS
notes: as for B2
[3]
  Phage binding ELISA, Anti-PSMA Fab (SEQ ID NOs: 19, 20) signal: 1.64
[4]
  Phage binding ELISA, Anti-PSMA Fab signal in the presence of PSMA: 0.0692

B16: Phage-2176 (peptide)
peptide: VEHWCTPRWMCRGF
notes: as for B2
[3]
  Phage binding ELISA, Anti-PSMA Fab (SEQ ID NOs: 19, 20) signal: 1.64
[4]
  Phage binding ELISA, Anti-PSMA Fab signal in the presence of PSMA: 0.0605

B17: Phage-2177 (peptide)
peptide: SLHLCIPQWMCGIS
modifications: cysteine pairing not given here; also: displayed on bacteriophage as fusion to pIII
notes: tested as crude clonal phage supernatant
[5]
  Anti-PSMA Fab signal in the presence of PSMA: 0.0806
[6]
  Anti-PSMA Fab (SEQ ID NOs: 19, 20) signal: 1.64

B18: Phage-2178 (peptide)
peptide: ITKWCTPAWMCAHL
modifications: cysteine pairing not given here; also: displayed on bacteriophage as fusion to pIII
notes: as for B17
[5]
  Anti-PSMA Fab signal in the presence of PSMA: 0.0904
[6]
  Anti-PSMA Fab (SEQ ID NOs: 19, 20) signal: 1.64

B19: Phage-2179 (peptide)
peptide: EPKLCRPAWMCVGM
notes: as for B17
[5]
  Anti-PSMA Fab signal in the presence of PSMA: 0.0704
[6]
  Anti-PSMA Fab (SEQ ID NOs: 19, 20) signal: 1.64

B20: Phage-2180 (peptide)
peptide: LIKWCTPPWMCEQL
notes: as for B17
[5]
  Anti-PSMA Fab signal in the presence of PSMA: 0.0655
[6]
  Anti-PSMA Fab (SEQ ID NOs: 19, 20) signal: 1.64

B21: Phage-2181 (peptide)
peptide: LDKLCIPSWMCWSH
notes: as for B17
[5]
  Anti-PSMA Fab signal in the presence of PSMA: 0.0713
[6]
  Anti-PSMA Fab (SEQ ID NOs: 19, 20) signal: 1.64

B22: Phage-2182 (peptide)
peptide: HEKLCIPWWMCEDH
notes: as for B17
[5]
  Anti-PSMA Fab signal in the presence of PSMA: 0.0868
[6]
  Anti-PSMA Fab (SEQ ID NOs: 19, 20) signal: 1.64

B23: Phage-2183 (peptide)
peptide: VHMRCIPEWMCQVF
notes: as for B17
[5]
  Anti-PSMA Fab signal in the presence of PSMA: 0.071
[6]
  Anti-PSMA Fab (SEQ ID NOs: 19, 20) signal: 1.63

B24: Phage-2184 (peptide)
peptide: TEKWCIPEWMCAHQ
modifications: cysteine pairing not given here; also: displayed on bacteriophage as fusion to pIII
notes: as for B17
[5]
  Anti-PSMA Fab signal in the presence of PSMA: 0.0839
[6]
  Anti-PSMA Fab (SEQ ID NOs: 19, 20) signal: 1.63

B25: Phage-2185 (peptide)
peptide: WSKSCTPAWMCEGF
notes: as for B17
[5]
  Anti-PSMA Fab signal in the presence of PSMA: 0.0843
[6]
  Anti-PSMA Fab (SEQ ID NOs: 19, 20) signal: 1.63

B26: Phage-2186 (peptide)
peptide: EFKWCIPAWMCTAA
notes: as for B17
[5]
  Anti-PSMA Fab signal in the presence of PSMA: 0.0998
[6]
  Anti-PSMA Fab (SEQ ID NOs: 19, 20) signal: 1.63

B27: Phage-2187 (peptide)
peptide: EIKWCTPAWMCEGF
notes: as for B17
[5]
  Anti-PSMA Fab signal in the presence of PSMA: 0.0762
[6]
  Anti-PSMA Fab (SEQ ID NOs: 19, 20) signal: 1.63

B28: Phage-2188 (peptide)
peptide: LSHWCSPQWMCSGF
notes: as for B17
[5]
  Anti-PSMA Fab signal in the presence of PSMA: 0.0932
[6]
  Anti-PSMA Fab (SEQ ID NOs: 19, 20) signal: 1.63

B29: Phage-2189 (peptide)
peptide: WYKWCTPAWMCEFT
notes: as for B17
[5]
  Anti-PSMA Fab signal in the presence of PSMA: 0.145
[6]
  Anti-PSMA Fab (SEQ ID NOs: 19, 20) signal: 1.63

B30: Phage-2190 (peptide)
peptide: EHHWCIPKWMCNEV
notes: as for B17
[5]
  Anti-PSMA Fab signal in the presence of PSMA: 0.0711
[6]
  Anti-PSMA Fab (SEQ ID NOs: 19, 20) signal: 1.63

B31: Phage-2191 (peptide)
peptide: VDNWCVPRWMCDGF
notes: as for B17
[5]
  Anti-PSMA Fab signal in the presence of PSMA: 0.0922
[6]
  Anti-PSMA Fab (SEQ ID NOs: 19, 20) signal: 1.63

## NERWCIPSWMCQEA [Phage-2253]
[7]
  Anti-PSMA Fab (SEQ ID NOs: 19, 20) signal: 1.55
[8]
  Anti-PSMA Fab signal in the presence of PSMA: 0.0574

## PAKWCIPMWMCQVD [Phage-2254]
[7]
  Anti-PSMA Fab (SEQ ID NOs: 19, 20) signal: 1.55
[8]
  Anti-PSMA Fab signal in the presence of PSMA: 0.0779

## VELLCKPPWMCSGL [Phage-2255]
[7]
  Anti-PSMA Fab (SEQ ID NOs: 19, 20) signal: 1.54
[8]
  Anti-PSMA Fab signal in the presence of PSMA: 0.0931

## PVNWCKPPWMCEMW [Phage-2256]
[7]
  Anti-PSMA Fab (SEQ ID NOs: 19, 20) signal: 1.54
[8]
  Anti-PSMA Fab signal in the presence of PSMA: 0.087

## MEMWCRPAWMCAHS (cysteine pairing not given here; also: displayed on phage, fused to pIII) [Phage-2257]
[7]
  Anti-PSMA Fab (SEQ ID NOs: 19, 20) signal: 1.54
[8]
  Anti-PSMA Fab signal in the presence of PSMA: 0.0767

## MMKWCTPEWMCAMV (cysteine pairing not given here; also: displayed on phage, fused to pIII) [Phage-2258]
[7]
  Anti-PSMA Fab (SEQ ID NOs: 19, 20) signal: 1.54
[8]
  Anti-PSMA Fab signal in the presence of PSMA: 0.0753

## DMRWCIPAWMCEDR [Phage-2259]
[7]
  Anti-PSMA Fab (SEQ ID NOs: 19, 20) signal: 1.54
[8]
  Anti-PSMA Fab signal in the presence of PSMA: 0.0623

## VDRWCIPEWMCNEL [Phage-2260]
[7]
  Anti-PSMA Fab (SEQ ID NOs: 19, 20) signal: 1.54
[8]
  Anti-PSMA Fab signal in the presence of PSMA: 0.084

## TEKWCIPAWMCQVS [Phage-2261]
[7]
  Anti-PSMA Fab (SEQ ID NOs: 19, 20) signal: 1.54
[8]
  Anti-PSMA Fab signal in the presence of PSMA: 0.0738

## PNIWCTPLWMCEGL [Phage-2262]
[7]
  Anti-PSMA Fab (SEQ ID NOs: 19, 20) signal: 1.54
[8]
  Anti-PSMA Fab signal in the presence of PSMA: 0.0772
